According to publication PMC8167871, “Three‐dimensional structures of avian beta‐microseminoproteins: insight from the chicken egg‐specific beta‐microseminoprotein 3 paralog” (FEBS Open Bio, 2021):

Target: the molecule itself
Test: MALDI-TOF mass spectrometry; top-down analysis of purified MSMB3 without any reduction or alkylation

B1: chicken beta-microseminoprotein 3 (MSMB3), proteoform lacking the C-terminal glycine, MSMB3(-G) (natural protein, chicken (Gallus gallus))
chain: RCYFRTSSKYGCISNRNLYVFGAVWKTEDCYQCKCKMNAMVCCSLVSIPKNYDRVNCVGLFHKKSCSIRVVKKTDPDISCKVYNGV
modifications: five disulfide bridges (C2-C43, C12-C35, C30-C66, C33-C42, C57-C80); delta mass of -1 Da on two lysines, especially K63 (potential oxidation of the lysine residue)
notes: chicken (Gallus gallus) MSMB3, mature protein without its C-terminal G87 (major proteoform of the purified sample, residues 1-86); numbers count on: the mature protein; The dimer seen by mass spectrometry and the crystal structure are of MSMB3(-G); the NMR sample is called only MSMB3; also called Gga-MSMB3; Gga-MSMB3 without G
  stoichiometry N: 2
